Assay results as given in patent US20190330315A1 (IMAGO PHARMACEUTICALS, published 2019).
Where no end group is shown, it is not given here.

Biological target: T1, Peptide 2: α-synuclein amino acids 108-117 (10 amino acids) PQEGILEDMP (human, also: biotin, position not given here)
T1 construct: Biotinylated peptide loaded on streptavidin biosensors
T1 peptide: PQEGILEDMP
Assay: BLI (ForteBio Octet Red96), biotinylated peptide on streptavidin biosensors, IGP101 at multiple concentrations
Protocol: The binding of IGP101 to two biotinylated α-synuclein peptides (SEQ ID NO:10 and SEQ ID NO:11) was determined using the Streptavidin biosensors. Biotinylated peptides were loaded at 5 μg/ml for 700 seconds, 300 seconds for baseline recording and then IGP101 association and dissociation measured for 600 seconds each at multiple concentrations. Double reference sensors were employed in all testing to measure and subtract any observed background signal from nonspecific binding or system noise.
Analysis was performed with ForteBio Data Analysis Software (v8.2). After background subtraction, a 1:1 local kinetic model was fit to the observed association and dissociation curves. Overall KD, Kₒₙ, Koff, and R2 correlation coefficients were determined. Where possible, a global curve fit was also performed for multiple concentrations of the antibody/analyte.

B1: IGP101 (antibody, V domains shown)
VH: EVQLVESGGGLVQPKGTLKLSCAASGFSFNTYAMNWVRQAPGKSLEWVARTLSKSNNYATYYADSVKDRFTISRDDSQSMLSLQMNNLKTEDTAMYYCVGAFAYWGQGTLVTVSA
VL: DIVMTQAAPSVPVTPGESVSISCRSSKSLLHSNGNTYLYWFLQRPGQSPQLLIYRMSNLASGVPDRFSGSGSGTAFTLRISRVEAEDVGVYYCMQHLEFPFTFGAGTKLELK
notes: Mouse monoclonal antibody from hybridoma ATCC PTA-9197; It was tested as whole mouse IgG, captured on anti-mouse IgG biosensors; The constant regions and isotype are not explicitly stated; a g2b constant region primer is mentioned only in illustrative cloning methods; also called IGP101 antibody; mouse monoclonal antibody IGP101
**Q.** Does B1 bind?
**A.** Result: no binding
